T1: BCMA (recombinant, form not given) (UniProt Q02223 1-54, limits assumed)
T1 construct: also called BCMA substrate; Bio-BCMA
T1 sequence (looked up): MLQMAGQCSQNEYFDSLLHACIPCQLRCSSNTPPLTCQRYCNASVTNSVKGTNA

B1: BCMA-4NP (sample in the affinity and competition assays) (scFv)
scFv: QVQLVQSGAEVKKPGSSVKVSCKASGGTFSNYWMHWVRQAPGQGLEWMGATYRGHSDTYYNQKFKGRVTITADKSTSTAYMELSSLRSEDTAVYYCARGAIYNGYDVLDNWGQGTLVTVSSGGGGSGGGGSGGGGSGGGGSDIQMTQSPSSLSASVGDRVTITCSASQDISNYLNWYQQKPGKAPKLLIYYTSNLHSGVPSRFSGSGSGTDFTLTISSLQPEDFATYYCQQYRKLPWTFGQGTKLEIKR
notes: also called BCMA-4NP control sample
B2: BCMA-4NP tool CAR (other, not shown: a dimerising Fc or GST)
chain: B1 scFv
notes: Tool CAR with humanized murine anti-BCMA scFv (VH and VL from WO2012/163805); also called 126021
B3: BCMA-15 CAR (other)
chain: EVQLVESGGGLVQPGGSLRLSCAVSGFALSNHGMSWVRRAPGKGLEWVSGIVYSGSTYYAASVKGRFTISRDNSRNTLYLQMNSLRPEDTAIYYCSAHGGESDVWGQGTTVTVSSASGGGGSGGRASGGGGSEIVLTQSPGTLSLSPGERATLSCRASQSIGSSSLAWYQQKPGQAPRLLMYGASSRASGIPDRFSGSGSGTDFTLTISRLEPEDFAVYYCQQYAGSPPFTFGQGTKVEIKTTTPAPRPPTPAPTIASQPLSLRPEACRPAAGGAVHTRGLDFACDIYIWAPLAGTCGVLLLSLVITLYCKRGRKKLLYIFKQPFMRPVQTTQEEDGCSCRFPEEEEGGCELRVKFSRSADAPAYKQGQNQLYNELNLGRREEYDVLDKRRGRDPEMGGKPRRKNPQEGLYNELQKDKMAEAYSEIGMKGERRRGKGHDGLYQGLSTATKDTYDALHMQALPPR
notes: also called 139114 Full CAR; PY43-48LB
B4: BCMA-Fc antigen (Fc fusion)
chain: AGQCSQNEYFDSLLHACIPCQLRCSSNTPPLTCQRYCNASVTNSVKG
notes: Bought reagent; also called BCMA fc fusion protein; recombinant BCMA-Fc; not shown: Fc region

Legend:
[1] = molecular target: T1, BCMA (recombinant, form not given); test: affinity assay, 1:1 binding fit; instrument and sample format not stated
BCMA-Fc antigen = molecular target: B4; test: flow cytometry of CAR-transduced JNL cells stained with BCMA-Fc antigen
Procedure: Jurkat-NFAT-luciferase (JNL) cells transduced with BCMA CAR constructs were evaluated for activation in response to BCMA-expressing target cell lines. Small-scale viral supernatant samples were generated in HEK293T cells for transduction of JNL cells. On Day 3 following transduction, BCMA CAR-transduced JNL cells were incubated with target cells at an effector-to-target (E:T) ratio of 6:1. Target cell lines were: K562-BCMA (engineered to stably express BCMA), K562 (parental line), and BCMA positive multiple myeloma cell lines, NCI-H929 and RPMI 8226. JNL activation was measured using Bright-Glo substrate (Promega) on Day 4. CAR expression on transduced JNL was assessed on Day 7 with BCMA-Fc antigen and Biotin-Protein L reagent (Table 7).

BCMA-10 CAR = molecular target: T2, BCMA-10 CAR; test: CAR-expressing T cells incubated with recombinant BCMA-Fc; staining of CAR+ cells
T2 construct: also called 139109 Full CAR; EG63-98LB

B1
Kd [1]: 0.1 nM | koff [1]: 0.000172 s⁻¹ | kon [1]: 1.58e+06 M⁻¹ s⁻¹

B2
% CAR+ (BCMA-Fc detection) (BCMA-Fc antigen): 28.3%

B3
% CAR+ (BCMA-Fc detection) (BCMA-Fc antigen): 36.9%

B4
binding result (BCMA-10 CAR): binds
